Experimental data taken from doi:10.1101/2025.05.06.652354.

Tests used:
[1] = molecular target: Clostridioides difficile transferase B component, CDTb(45-876), activated with trypsin (Clostridioides difficile) (UniProt O32739); experiment: SEC
[2] = molecular target: Clostridioides difficile transferase B component, CDTb(45-876), activated with trypsin (Clostridioides difficile) (UniProt O32739); experiment: SDS-PAGE of SDS-resistant oligomers

Clostridioides difficile transferase B component, CDTb(45-876), activated with trypsin (from UniProt O32739 45-876) (natural protein)
stoichiometry N [1]: 7
fold oligomer formed with 2.5 M ethanol against water [2]: 7.5 fold
